In patent US20050170442A1 one finds EC50 of enzyme titration (TR-FRET ratio, 400 nM substrate, 200 µM ATP) data, which are given here for two substances.

This assay concerns the target Biotin-labeled fluorescent peptide …(S*)PDK-(5-FAM). Put plainly: cell-based or functional assay.

For the substance “GSK3α, rHuman (from UniProt P49840 1-483) (enzyme)”, the EC50 of enzyme titration (TR-FRET ratio, 400 nM substrate, 200 µM ATP) came to 0.025 µg/mL.

With “GSK3β, rHuman (from UniProt P49841 1-420) (enzyme)”, the EC50 of enzyme titration (TR-FRET ratio, 400 nM substrate, 200 µM ATP) was found to be 0.245 µg/mL.
